Measured values as given in the DeepSol protein solubility set.

Test: soluble on expression in E. coli; label from the status in PepcDB or PDB records

Row | Sequence | soluble on expression in E. coli
1 | HMAKATTIKDAIRIFEERKSVVATEAEKVELHGMIPPIEKMDATLSTLKACKHLALSTNNIEKISSLSGMENLRILSLGRNLIKKIENLDAVADTLEELWISYNQIASLSGIEKLVNLRVLYMSNNKITNWGEIDKLAALDKLEDLLLAGNPLYNDYKENNATSEYRIEVVKRLPNLKKLDGMPVDVDEREQANVARGG | soluble
2 | MTKPRYNDVLFDDDDSVPSESVTRKSQRRKATSPGESRESSKDRLLILPSMGESYTEYVDSYLNLELLERGERETPIFLESLTRQLTQKIYELIKTKSLTADTLQQISDKYDGVVAENKLLFLQRQYYVDDEGNVRDGRNNDKIYCEPKHVYDMVMATHLMNKHLRGKTLHSFLFSHFANISHAIIDWVQQFCSKCNKKGKIKPLKEYKR | not soluble
3 | MCKHCGAAVLFVKDDRWHVFDAKPSEEGEWRIRSRWAANVAAEKTTVTRLTESKLRRARLMGEPLFRPHFQTCPANPRAKILQEKRRHG | not soluble
4 | SNAMATFMTEDFLLKNDIARTLYHKYAAPMPIYDFHCHLSPQEIADDRRFDNLGQIWLEGDHYKWRALRSAGVDESLITGKETSDYEKYMAWANTVPKTLGNPLYHWTHLELRRPFGITGTLFGPDTAESIWTQCNEKLATPAFSARGIMQQMNVRMVGTTDDPIDSLEYHRQIAADDSIDIEVAPSWRPDKVFKIELDGFVDYLRKLEAAADVSITRFDDLRQALTRRLDHFAACGCRASDHGIETLRFAPVPDDAQLDAILGKRLAGETLSELEIAQFTTAVLVWLGRQYAARGWVMQLHIGAIRNNNTRMFRLLGPDTGFDSIGDNNISWALSRLLDSMDVTNELPKTILYCLNPRDNEVLATMIGNFQGPGIAGKVQFGSGWWFNDQKDGMLRQLEQLSQMGLLSQFVGMLTDSRSFLSYTRHEYFRRILCNLLGQWAQDGEIPDDEAMLSRMVQDICFNNAQRYFTIK | soluble
5 | MAHHHHHHMKINNNEKSYILYQCLKLLIRLHDAGLSHLDLTPENILISDNYEMRLCDLSKSTPIYTYNLRHIKDVNRLYLFESCEPTIAKGAYMPPECWKIYWKYDTMKIKNPLKDLKNITDQEKRKQFYFDVSSADKFMLGVFFFWIWTNGNLWKCSDPLQDEDFFYFVKCDMNFDKFELTRKWPTDLKNIIKVGGAEQRRSG | not soluble
6 | MVKSPGASPERKKVKIDVYPMVVKDPQAREINETLLFDYTTALSSFETPTEEQLLVSEGDAFRHHPNEDVEQYFRASAQWGVPAIAWNIVRPAFLWKLEFCITEFMNVEKKKKEAAANSAQANSEVEKIAESPVKEKLSILGHKVNLIKTTPVVFSTEESMEFVLSKAKSFDGFPFTWQRLCELLIEPMRHYNTIDKFLRAVDKVINVVTTINENGGRSFGDWDLPNSQQFHLENTFFGVVDEVEMMELEKVKHDFQSSSSPSEEPLDMSQKSMPAPRVSTASPDPPSFVLPTARSPINTSPSSSPKASSPKASSPKAASPVSSPKSPVIQDQSPKKEDAKEGEGEIVHEEEMPEETLEVETKNEVNKEDADMEIGAE | not soluble
7 | MGSSTGFHHADHVNYSSNLNKEEILEQLLLSYEGLSDGQVNWVCNLSNASSLIWHAYKSLAVDINWAGFYVTQASEENTLILGPFQGKVACQMIQFGKGVCGTAASTKETQIVPDVNKYPGHIACDGETKSEIVVPIISNDGKTLGVIDIDCLDYEGFDHVDKEFLEKLAKLINKSCVFK | soluble
8 | MSKDIRTVRPPVQLLPKAIIAVRPASTAKADLEVMAAQVAQLTTACCQENIQVDSIIITFGGIKDITKRVKQLTEQKDISYLIIYSGKQIAENESEYVNFKRDMQDWYYLKVVCYR | not soluble
9 | METADTYTIVLTERNMGYAGQFYMVSKEGIGEAPISVGSGYGNPLMFSIKAVGSVTKGIMNDPYGEIGIRGPYGNVWPWKSYEHVVAIAGGIGIPPIKALIEDMQGHTSLDKLTVLYGARSPSDIVYRSEIETWKEEMDFRITVDKGDENWRGHVGVVTTLVPEIKEYNHGAAFVIGPPVMMKFSVKSLLDAGFAEDNIYLSLERRMECGIGVCGHCNIGRWYACEDGPIFKYSDTKEEPELFL | not soluble
10 | SLGPPPGPPRVSPDPRAELDSTVLLTRSLLADTRQLAAQLRDKFPADGDHNLDSLPTLAMSAGALGALQLPGVLTRLRADLLSYLRHVQWLRRAGGSSLKTLEPELGTLQARLDRLLRRLQLLMSRLALPQPPPDPPAPPLAPPSSAWGGIRAAHAILGGLHLTLDWAVRGLLLLKTR | soluble
11 | MSVEKIPGYTYGETENRAPFNLEDLKLLKEAVMFTAEDEEYIQKAGEVLEDQVEEILDTWYGFVGSHPHLLYYFTSPDGTPNEKYLAAVRKRFSRWILDTSNRSYDQAWLDYQYEIGLRHHRTKKNQTDNVESVPNIGYRYLVAFIYPITATMKPFLARKGHTPEEVEKMYQAWFKATTLQVALWSYPYVKYGDF | soluble
12 | MGSDKIHHHHHHMNDENIQSSNYQPFPSFDDWKQIEVSLLDVIESSRHFSDLKDSTDRSALDAALERAKRAAAVDTNAIEGIFQTDRGFTHTVATQVGAWEQQMAMKGKHVKPAFDDTLEGFEYVLDAVTGRTPISQQWIRNLHAVILRSQESHEVFTAVGVQNQALQKGEYKTQPNSPQRSDGSVHAYAPVEDTPAEMARFISELESKEFLAAEKVIQAAYAHYAFVCIHPFADGNGRVARALASVFLYKDPGVPLVIYQDQRRDYIHALEAADKNNPLLLIRFFAERVTDTINSIIVDLTTPIAGKSGSAKLSDALRPTRVLPELHDAAHRLQESLFTEIRSRLDEEGKRNGLEFLLQRIFIGSPFNLPEGYNAFPDSYCLTLAFNSNSPKQIFHPLSIVIAARDGKRASSDLVAATSIGYNFHAYGREVEPVVTESFRERVKIYADGIVDHFLTELAKKFQQN | not soluble
13 | MGSDKIHHHHHHMDEIELRHILHMNPELSFKEYRTKETLRKAVIEIGYEKIIEVAGTGLVIEKKETEDPYVVLRADMDALPIKEETGWEFASRNEYMHACGHDFHMSALYGAMKRLRNVKKNFLFVFQPAEETGGGAKEVVDFLKDKYEIKAAVGFHVTDEYDAGTVASRPGVLFASATEFDVYFKGVPAHVAFAEKGKDALKAAVSFLGWLYNKKWNALVGVGKISGGRARNIVPDEIKLEGTIRSEALRITEEVISNMVKQLGELKEEMGVDFAVERGSVYPEVKVDQNLFETLRETCQRLGFSFVECDMKWTGEDFGYFSQVFPSLLFWFGVGEGERFGLHHPRFLPNDRYIPMAADLLAELAMVI | not soluble
14 | RLQPIIVPGWQGSGPGHWQTHWSRTLPHAVRLQQRDWHQPQRAEWVAALAAAVDAAPTPVLLVAHSLGCLVSAALPIALRAKVAGALLVAPADVERPGAPAAIAAFGPVPRQSLPYQSVVIASDDDPYCRLERARQFAQDWGSRLVVLQGAGHINADSQLGAWPQGLKQLAALRRRACW | not soluble
15 | MKLVICIVQDDDAGELIDVLTDKGLRVTKLATTGGFLKAGNTTLMIGVEEKAVDGVIETIEDVCKTRQQVVTSPSPVAGSTGVYVPYPIDVEVGGATIFVVDVDKFIKI | not soluble
16 | MAHHHHHHMYKLVLIRHGESTWNKENRFTGWVDVDLTEQGNREARQAGQLLKEAGYTFDIAYTSVLKRAIRTLWHVQDQMDLMYVPVVHSWRLNERHYGALSGLNKAETAAKYGDEQVLVWRRSYDTPPPALEPGDERAPYADPRYAKVPREQLPLTECLKDTVARVLPLWNESIAPAVKAGKQVLIAAHGNSLRALIKYLDGISDADIVGLNIPNGVPLVYELDESLTPIRHYYLGDQEAIAKAQAAVAQQGKSAA | soluble
17 | MARVYVSTVVNARNDRVWARVRDFNGLPNWHPAIAESRIEGGEPSDKIGCVRDFRLRNGDRIREKLLGLSDYDMFCTYSILESPMGVENYVATLRLTPVTDGDQTFMEWTAEFDCAPERETELVNNIGGGVFQGGFDALKRVFGGLEHHHHHH | soluble
18 | MGSDKIHHHHHHMSSHQLPFQRSDEEVQASSGDSLTIARKQEVVQLLKQISDRTLKNDIISLGMVRNLRIVDDYIYLRLYIGSHQHQLETEIQTVLSSLTWSKKTYIQLCTIPGVRTTLAVSSGKGGVGKSTTAVNLAAALQLAGAKVGLLDADVYGPNVPQMLGLGKSEVKVIDTPKGQRFVPLEAHGIKVMSVGLLAEADHPLAWRGPVLHKIITQFIHEVEWGELDYLLIDLPPGTGDAQITIVQESPICGVILVTTPQNVAISDVRRSVYMFRQVGVPVIEIIENMSYFIGNGGEKISIFGSGGGQKLVEELKAPLLGQIPIDPLICNGGDVGEPLMLVDPNSKASQVFVQIAGALNATFSGSM | not soluble
19 | GSHMASTISVKDENGTVKVPKDAKRIVVLEYSFADALAALDVKPVGIADDGKKKRIIKPVREKIGDYTSVGTRKQPNLEEISKLKPDLIIADSSRHKGINKELNKIAPTLSLKSFDGDYKQNINSFKTIAKALNKEKEGEKRLAEHDKLINKYKDEIKFDRNQKVLPAVVAKAGLLAHPNYSYVGQFLNELGFKNALSDDVTKGLSKYLKGPYLQLDTEHLADLNPERMIIMTDHAKKDSAEFKKLQEDATWKKLNAVKNNRVDIVDRDVWARSRGLISSEEMAKELVELSKKEQK | soluble
20 | GSYAEGQRKRRNTIHEFKKSAKTTLIKIDPALKIKTKKVNTADQCANRCTRNKGLPFTCKAFVFDKARKQCLWFPFNSMSSGVKKEFGHEFDLYENKDYIRNCIIGEGESYKGTVSITKSGIKCQPWSSMIPHEHSFLPSSYRGKDLQENYCRNPRGEEGGPWCFTSNPEVRYEVCDIPQCSEVECMTANGESYRGLMDHTESGKICQRWDHQTPHRHKFLPERYPDKGFDDNYCRNPDGQPRPWCYTLDPHTRWEYCAIKTCA | soluble
21 | MSLNQSYFNLLGNITWLWMNSSLHKEWSCELLARNVIPAIENEQYMLLIDNGIPIAYCSWADLNLETEVKYIKDINSLTPEEWQSGDRRWIIDWVAPFGHSQLLYKKMCQKYPDMIVRSIRFYPKQKELGKIAYFKGGKLDKKTAKKRFDTYQEELATALKNEFNFIKKEGHHHHHH | soluble
22 | MVIDQTDPIYVLFHDEEWGVPVRDDKKLFELLVFSQALAEFSWPSILRRRDDFRKLFEEFDPSAIAQFTEKRLMSLRVNGCLILSEQKLRAIVENAKSVLKVKQEFGSFSNYCWRFVNHKPLRNGYRYGRQVPVKSPKAEYISKDMMQRGFRCVGPTVMYSFLQASGIVNDHLTACFRYQECNVETERETKSHETETKLDLHSPLLV | soluble
23 | MDNHNKYSVRCQCGAVEVQLNNNPVVHAFCHCSDCRDLLNIPFHAVTAWNKNDAVIVKGEEELSIYKHPSLEMTRCFCKHCGETVFNTNVMDWRVISQLLISKCNNNEIPENLRSDKHFFYEQRVVDIQDELPKFSRGTDGPLYEDQH | not soluble
24 | ADDAKPRVKVPSSAKAGETVTVKALISHKMESGQRKDADGKLIPRSIINRFTCELNGVNVVDVAIDPAVSTNPYFEFDAKVDAAGEFKFTWYDDDGSVYEDVKPIAVA | soluble
25 | MEIGVVGKPNVGKSTFFSAATLVDVEIANYPFTTIEANVGVTYAITDHPCKELGCSPNPQNYEYRNGLALIPVKMVDVAGLVPGAHEGRGLGNKFLDDLRMASALIHVVDATGKTDPEGQPTDYHDPVEDIEFLEREIDYWIYGILSKGWDKFAKRIKLQKIKLESAIAEHLSGIGVNENDVWEAMHKLNLPEDPTKWSQDDLLAFASEIRRVNKPMVIAANKADAASDEQIKRLVREEEKRGYIVIPTSAAAELTLRKAAKAGFIEYIPGASEFKVLRDMSEKQKRALMVIKEKVLDRFGSTGVQEVINRVVFDLLKLIPVYPVHDENKLTDQFGNVLPHVFLMKKGSTPRDLAFKVHTDLGKGFLYAINARTKRRVGEDYELQFNDIVKIVSVTR | soluble
